One block for each binder: values may come before it.
Columns and labels:
[1] = molecular target: GroEL (wild type, recombinant, from pET22b-groL) (E. coli, UniProt P0A6F5 1-548); assay: SEC
[2] = molecular target: GroEL (untagged, from pET15b, for quantitative binding studies) (E. coli, UniProt P0A6F5 1-548); assay: other fluorescence titration
[3] = molecular target: GroEL_(R452A/E461A/S463A/V464A) (E. coli, UniProt P0A6F5 1-548, R452A | E461A | S463A | V464A); assay: SEC

binding result [1]: binds
B1: Citrate synthase (CS) from pig hearts, chemically unfolded (enzyme, UniProt P00889 28-464, looked up)
chain: ASSTNLKDILADLIPKEQARIKTFRQQHGNTVVGQITVDMMYGGMRGMKGLVYETSVLDPDEGIRFRGYSIPECQKMLPKAKGGEEPLPEGLFWLLVTGQIPTEEQVSWLSKEWAKRAALPSHVVTMLDNFPTNLHPMSQLSAAITALNSESNFARAYAEGIHRTKYWELIYEDCMDLIAKLPCVAAKIYRNLYREGSSIGAIDSKLDWSHNFTNMLGYTDAQFTELMRLYLTIHSDHEGGNVSAHTSHLVGSALSDPYLSFAAAMNGLAGPLHGLANQEVLVWLTQLQKEVGKDVSDEKLRDYIWNTLNSGRVVPGYGHAVLRKTDPRYTCQREFALKHLPHDPMFKLVAQLYKIVPNVLLEQGKAKNPWPNVDAHSGVLLQYYGMTEMNYYTVLFGVSRALGVLAQLIWSRALGFPLERPKSMSTDGLIKLVDSK

Ki [2]: 47 nM
B2: GroES (for quantitative binding studies, His tag removed) (natural protein, E. coli)
chain: MNIRPLHDRVIVKRKEVETKSAGGIVLTGSAAAKSTRGEVLAVGNGRILENGEVKPLDVKVGDIVIFNDGYGVKSEKIDNEEVLIMSESDILAIVEA

binding result [3]: binds
B3: CnoX (wild type, recombinant, from pET22b-cnoX) (natural protein, E. coli)
chain: MSVENIVNINESNLQQVLEQSMTTPVLFYFWSERSQHCLQLTPILESLAAQYNGQFILAKLDCDAEQMIAAQFGLRAIPTVYLFQNGQPVDGFQGPQPEEAIRALLDKVLPREEELKAQQAMQLMQESNYTDALPLLKDAWQLSNQNGEIGLLLAETLIALNRSEDAEAVLKTIPLQDQDTRYQGLVAQIELLKQAADTPEIQQLQQQVAENPEDAALATQLALQLHQVGRNEEALELLFGHLRKDLTAADGQTRKTFQEILAALGTGDALASKYRRQLYALLY

Source: publication PMC10044410 (Cell, 2023)
